In patent US20220332804A1 (CSL INNOVATION, published 2022):

What was measured:
Assay in all cases: SPR, KD relative to WT C2;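 also: biacore SPR at 37 °C, anti-C2 mAbs captured via immobilised goat anti-human IgG, C2 alanine or serine surface mutants as analytes, 1:1 model fitted, double-referenced sensograms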
human C2 E556A = biological target: T1, human C2 E556A (human, UniProt P06681 21-752)
T1 sequence: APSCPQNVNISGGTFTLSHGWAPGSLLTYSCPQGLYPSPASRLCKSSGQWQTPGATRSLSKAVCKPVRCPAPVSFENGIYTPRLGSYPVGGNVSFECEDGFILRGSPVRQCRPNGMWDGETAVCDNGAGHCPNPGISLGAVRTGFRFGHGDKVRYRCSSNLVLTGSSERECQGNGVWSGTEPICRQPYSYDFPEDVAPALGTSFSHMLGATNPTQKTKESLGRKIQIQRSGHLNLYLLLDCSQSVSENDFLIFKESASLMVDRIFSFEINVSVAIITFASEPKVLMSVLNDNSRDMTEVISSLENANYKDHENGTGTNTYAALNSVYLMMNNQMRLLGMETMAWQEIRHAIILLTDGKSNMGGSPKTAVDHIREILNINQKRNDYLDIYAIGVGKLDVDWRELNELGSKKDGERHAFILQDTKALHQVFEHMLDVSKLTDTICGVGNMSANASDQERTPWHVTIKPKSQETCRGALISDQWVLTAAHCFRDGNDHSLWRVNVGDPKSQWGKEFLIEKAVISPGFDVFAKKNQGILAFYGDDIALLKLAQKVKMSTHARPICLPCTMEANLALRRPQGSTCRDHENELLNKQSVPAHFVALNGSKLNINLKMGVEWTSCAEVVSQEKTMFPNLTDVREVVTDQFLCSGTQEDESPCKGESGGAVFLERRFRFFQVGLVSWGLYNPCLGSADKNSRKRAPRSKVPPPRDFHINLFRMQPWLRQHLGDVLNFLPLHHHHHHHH

human C2 L701A = biological target: T2, human C2 L701A (human, UniProt P06681 21-752)
T2 sequence: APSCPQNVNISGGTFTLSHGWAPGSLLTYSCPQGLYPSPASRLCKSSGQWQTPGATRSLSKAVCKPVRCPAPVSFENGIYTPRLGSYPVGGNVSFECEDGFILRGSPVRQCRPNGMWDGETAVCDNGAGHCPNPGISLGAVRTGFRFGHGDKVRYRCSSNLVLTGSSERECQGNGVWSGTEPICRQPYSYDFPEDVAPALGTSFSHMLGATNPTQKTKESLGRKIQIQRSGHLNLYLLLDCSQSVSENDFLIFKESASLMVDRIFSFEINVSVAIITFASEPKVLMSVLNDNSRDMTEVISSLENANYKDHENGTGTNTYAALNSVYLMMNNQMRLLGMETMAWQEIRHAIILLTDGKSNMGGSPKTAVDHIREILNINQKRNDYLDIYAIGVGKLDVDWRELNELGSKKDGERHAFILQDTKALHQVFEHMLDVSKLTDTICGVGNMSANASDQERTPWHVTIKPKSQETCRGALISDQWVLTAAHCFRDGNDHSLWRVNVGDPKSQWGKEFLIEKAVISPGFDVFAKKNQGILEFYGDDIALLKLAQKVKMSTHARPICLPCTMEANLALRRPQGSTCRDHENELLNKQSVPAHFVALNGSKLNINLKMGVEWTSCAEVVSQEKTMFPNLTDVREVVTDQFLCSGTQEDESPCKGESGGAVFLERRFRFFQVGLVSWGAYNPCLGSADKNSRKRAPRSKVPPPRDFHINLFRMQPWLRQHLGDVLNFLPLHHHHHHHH

human C2 D441A = biological target: T3, human C2 D441A (human, UniProt P06681 21-752)
T3 sequence: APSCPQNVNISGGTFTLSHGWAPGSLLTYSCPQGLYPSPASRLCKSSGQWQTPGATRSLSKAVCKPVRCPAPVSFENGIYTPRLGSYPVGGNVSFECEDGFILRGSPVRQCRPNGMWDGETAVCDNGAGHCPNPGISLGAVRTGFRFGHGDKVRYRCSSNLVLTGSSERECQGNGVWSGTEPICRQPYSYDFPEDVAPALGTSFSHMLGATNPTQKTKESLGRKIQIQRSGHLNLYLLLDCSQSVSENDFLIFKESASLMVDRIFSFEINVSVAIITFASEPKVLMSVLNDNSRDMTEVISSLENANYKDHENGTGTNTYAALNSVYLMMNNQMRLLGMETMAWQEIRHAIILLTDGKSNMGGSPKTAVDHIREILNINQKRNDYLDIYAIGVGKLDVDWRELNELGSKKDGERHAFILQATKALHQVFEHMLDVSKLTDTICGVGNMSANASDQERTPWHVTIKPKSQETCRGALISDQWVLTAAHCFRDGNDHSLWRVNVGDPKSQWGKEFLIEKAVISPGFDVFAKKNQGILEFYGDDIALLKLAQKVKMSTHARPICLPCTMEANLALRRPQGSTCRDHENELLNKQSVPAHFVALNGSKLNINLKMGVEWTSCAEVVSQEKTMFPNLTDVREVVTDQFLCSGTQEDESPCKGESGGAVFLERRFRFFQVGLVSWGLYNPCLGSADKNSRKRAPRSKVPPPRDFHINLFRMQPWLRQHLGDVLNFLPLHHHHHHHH

human C2 I320A = biological target: T4, human C2 I320A (human, UniProt P06681 21-752)
T4 sequence: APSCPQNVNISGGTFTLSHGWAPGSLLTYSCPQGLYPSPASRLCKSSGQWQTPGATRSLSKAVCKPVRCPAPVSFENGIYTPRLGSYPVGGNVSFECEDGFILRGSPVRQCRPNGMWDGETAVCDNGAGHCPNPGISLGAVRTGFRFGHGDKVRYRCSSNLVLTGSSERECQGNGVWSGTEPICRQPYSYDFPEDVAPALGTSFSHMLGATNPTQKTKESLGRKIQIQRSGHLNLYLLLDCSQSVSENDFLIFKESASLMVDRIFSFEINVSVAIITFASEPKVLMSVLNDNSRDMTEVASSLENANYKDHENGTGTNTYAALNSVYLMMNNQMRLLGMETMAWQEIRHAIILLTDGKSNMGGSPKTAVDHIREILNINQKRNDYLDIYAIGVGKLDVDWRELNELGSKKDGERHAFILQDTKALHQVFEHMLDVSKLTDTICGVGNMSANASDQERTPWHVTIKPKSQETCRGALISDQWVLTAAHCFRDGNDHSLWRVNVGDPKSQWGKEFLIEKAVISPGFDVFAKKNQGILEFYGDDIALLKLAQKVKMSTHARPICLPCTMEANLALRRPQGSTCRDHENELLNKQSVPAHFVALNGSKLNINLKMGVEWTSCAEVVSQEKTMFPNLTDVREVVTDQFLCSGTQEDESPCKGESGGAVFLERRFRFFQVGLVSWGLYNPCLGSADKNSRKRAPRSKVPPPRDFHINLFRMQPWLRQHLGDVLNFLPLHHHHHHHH

B1: RF16-226 (antibody, human IgG4 S228P, lambda)
heavy: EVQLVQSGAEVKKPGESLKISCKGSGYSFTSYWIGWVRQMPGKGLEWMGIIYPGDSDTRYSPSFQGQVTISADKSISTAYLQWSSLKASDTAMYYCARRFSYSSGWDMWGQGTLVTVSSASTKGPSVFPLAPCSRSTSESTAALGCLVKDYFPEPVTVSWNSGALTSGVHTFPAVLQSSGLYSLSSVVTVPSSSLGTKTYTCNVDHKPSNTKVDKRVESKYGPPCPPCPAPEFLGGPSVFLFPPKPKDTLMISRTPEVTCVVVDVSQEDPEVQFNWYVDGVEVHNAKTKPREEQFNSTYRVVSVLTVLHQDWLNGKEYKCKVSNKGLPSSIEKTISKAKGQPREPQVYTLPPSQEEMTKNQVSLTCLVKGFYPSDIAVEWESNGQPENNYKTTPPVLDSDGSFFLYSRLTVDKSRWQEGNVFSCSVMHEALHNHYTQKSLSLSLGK
light: SYELTQPPSVSVSPGQTARITCSGDALTSKYVAWYQQKSGLAPLLVIYEDTRRPSGIPAKFSGSSSGSVATLTISGAHGDDEADYYCYSTDASGHQRVFGGGTKLTVLSQPKAAPSVTLFPPSSEELQANKATLVCLISDFYPGAVTVAWKADGSPVKAGVETTKPSKQSNNKYAASSYLSLTPEQWKSHRSYSCQVTHEGSTVEKTVAPTECS
notes: pH-dependent anti-C2 antibody from a phage display library; also called WT
Work on B1 yielded a Fold diff (human C2 E556A) of 1 fold, a Fold diff (human C2 L701A) of 16 fold and a Fold diff (human C2 D441A) of 6 fold. It also gave a Fold diff (human C2 I320A) of 12 fold.
